The results in this text go back to the supplement of paper PMC7125110.

First the molecules themselves.
B1: glmS ribozyme (parent)
chain: AUAAAAGCGCCAGAACUACAGAAAUGUAGUUGACGAGGAGGAGGUUUAUCGAAUUUUCGGCGGAUGCCUCCAAA

Conditions in all cases: with glucosamine-6-phosphate
Variants of B1 are the subject of data set [1]. The experiment in a line: self-cleavage kobs at 40 uM GlcN6P; higher = faster cleavage; RNA array. The essentials: (§1)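 Barcoded ribozyme variants were transcribed in situ on sequenced MiSeq chips by E. coli RNA polymerase. At 37 °C, a hybridised Cy3 probe tracked them while glucosamine-6-phosphate (40 μM to 10 mM) in HEPES/KCl/Mg(OAc)2 buffer flowed in and tiles were imaged over ~14 h. Per-tile medians of signals normalised to baseline and to non-cleaving reference variants were fit to one- or two-exponential decays, giving kobs. kcat and KM came from weighted Michaelis–Menten fits across concentrations.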

Data set [2] covers variants of B1. The experiment in a line: self-cleavage kobs at 160 uM GlcN6P; higher = faster cleavage; RNA array. The essentials:
as §1

Variants of B1 are the subject of data set [3]. The experiment in a line: self-cleavage kobs at 640 uM GlcN6P; higher = faster cleavage; RNA array. The gist of the method:
as §1

The variants in data set [4] derive from B1. The experiment in a line: self-cleavage kobs at 2500 uM GlcN6P; higher = faster cleavage; RNA array. The essentials: as §1
Data set [5] covers variants of B1. The experiment in a line: self-cleavage kobs at 10000 uM GlcN6P; higher = faster cleavage; RNA array. The gist of the method: as §1

± gives the standard error. This sample holds only a part of the variants without activity.

For the variant G9U C16A, the “self-cleavage kobs at 40 uM GlcN6P” value with glucosamine-6-phosphate [1] is < 1e-05 s⁻¹. Also, the “self-cleavage kobs at 160 uM GlcN6P” value in the data set with glucosamine-6-phosphate [2] is < 1e-05 s⁻¹. The “self-cleavage kobs at 640 uM GlcN6P” value with glucosamine-6-phosphate [3] is < 1e-05 s⁻¹. Also, in the data set with glucosamine-6-phosphate [4], the “self-cleavage kobs at 2500 uM GlcN6P” value was < 1e-05 s⁻¹. The “self-cleavage kobs at 10000 uM GlcN6P” value in the data set with glucosamine-6-phosphate [5] is < 1e-05 s⁻¹.

On to G9A C10G G32U A48G, for which the “self-cleavage kobs at 40 uM GlcN6P” value with glucosamine-6-phosphate [1] is < 1e-05 s⁻¹.

Regarding C16U U55G, in the data set with glucosamine-6-phosphate [1], the “self-cleavage kobs at 40 uM GlcN6P” value was determined as 0.000446 ± 7.1e-05 s⁻¹. Moreover, the “self-cleavage kobs at 160 uM GlcN6P” value with glucosamine-6-phosphate [2] was found to be 0.00102 ± 0.00026 s⁻¹. Also, the “self-cleavage kobs at 640 uM GlcN6P” value in the data set with glucosamine-6-phosphate [3] was determined as 0.00467 ± 0.0013 s⁻¹. Besides, the “self-cleavage kobs at 2500 uM GlcN6P” value with glucosamine-6-phosphate [4] amounted to 0.00554 ± 0.0013 s⁻¹. Further, in the data set with glucosamine-6-phosphate [5], the “self-cleavage kobs at 10000 uM GlcN6P” value turned out to be 0.0464 ± 0.01 s⁻¹.

As to U49A A52C, the “self-cleavage kobs at 40 uM GlcN6P” value with glucosamine-6-phosphate [1] was < 1e-05 s⁻¹. Moreover, the “self-cleavage kobs at 160 uM GlcN6P” value with glucosamine-6-phosphate [2] was < 1e-05 s⁻¹. Besides, the “self-cleavage kobs at 640 uM GlcN6P” value with glucosamine-6-phosphate [3] was < 1e-05 s⁻¹. In addition, in the data set with glucosamine-6-phosphate [5], the “self-cleavage kobs at 10000 uM GlcN6P” value was < 1e-05 s⁻¹.

For the variant C11U G41U A64U, the “self-cleavage kobs at 40 uM GlcN6P” value with glucosamine-6-phosphate [1] was < 1e-05 s⁻¹. In addition, the “self-cleavage kobs at 160 uM GlcN6P” value in the data set with glucosamine-6-phosphate [2] is < 1e-05 s⁻¹. Moreover, the “self-cleavage kobs at 2500 uM GlcN6P” value with glucosamine-6-phosphate [4] is < 1e-05 s⁻¹. For the same variant, the “self-cleavage kobs at 10000 uM GlcN6P” value with glucosamine-6-phosphate [5] is < 1e-05 s⁻¹.

Turning to C50A G62A A64C, the “self-cleavage kobs at 40 uM GlcN6P” value in the data set with glucosamine-6-phosphate [1] is < 1e-05 s⁻¹. In the data set with glucosamine-6-phosphate [5], the “self-cleavage kobs at 10000 uM GlcN6P” value is < 1e-05 s⁻¹.

For the variant A12G A53C U55G, the “self-cleavage kobs at 40 uM GlcN6P” value with glucosamine-6-phosphate [1] was < 1e-05 s⁻¹. Besides, in the data set with glucosamine-6-phosphate [5], the “self-cleavage kobs at 10000 uM GlcN6P” value was 0.000115 ± 1.8e-05 s⁻¹.

Turning to G60C A64C, the “self-cleavage kobs at 40 uM GlcN6P” value with glucosamine-6-phosphate [1] was < 1e-05 s⁻¹. Further, the “self-cleavage kobs at 160 uM GlcN6P” value with glucosamine-6-phosphate [2] was < 1e-05 s⁻¹. In addition, in the data set with glucosamine-6-phosphate [3], the “self-cleavage kobs at 640 uM GlcN6P” value was < 1e-05 s⁻¹. In the data set with glucosamine-6-phosphate [4], the “self-cleavage kobs at 2500 uM GlcN6P” value is < 1e-05 s⁻¹. The “self-cleavage kobs at 10000 uM GlcN6P” value with glucosamine-6-phosphate [5] is < 1e-05 s⁻¹.

With G7C A33U, the “self-cleavage kobs at 40 uM GlcN6P” value with glucosamine-6-phosphate [1] was < 1e-05 s⁻¹. Further, the “self-cleavage kobs at 160 uM GlcN6P” value in the data set with glucosamine-6-phosphate [2] was < 1e-05 s⁻¹. Also, in the data set with glucosamine-6-phosphate [4], the “self-cleavage kobs at 2500 uM GlcN6P” value was < 1e-05 s⁻¹. The “self-cleavage kobs at 10000 uM GlcN6P” value in the data set with glucosamine-6-phosphate [5] is < 1e-05 s⁻¹.

Turning to U30A U45C A48C, the “self-cleavage kobs at 40 uM GlcN6P” value in the data set with glucosamine-6-phosphate [1] was < 1e-05 s⁻¹.

For the variant A39G G51C G62C, the “self-cleavage kobs at 40 uM GlcN6P” value with glucosamine-6-phosphate [1] was < 1e-05 s⁻¹. Moreover, the “self-cleavage kobs at 10000 uM GlcN6P” value with glucosamine-6-phosphate [5] is < 1e-05 s⁻¹.

For G9C G32C C68A, the “self-cleavage kobs at 40 uM GlcN6P” value with glucosamine-6-phosphate [1] is < 1e-05 s⁻¹. In addition, in the data set with glucosamine-6-phosphate [3], the “self-cleavage kobs at 640 uM GlcN6P” value is < 1e-05 s⁻¹. Moreover, the “self-cleavage kobs at 2500 uM GlcN6P” value in the data set with glucosamine-6-phosphate [4] was < 1e-05 s⁻¹. The “self-cleavage kobs at 10000 uM GlcN6P” value with glucosamine-6-phosphate [5] is < 1e-05 s⁻¹.

With C34G A42C C71U, the “self-cleavage kobs at 40 uM GlcN6P” value with glucosamine-6-phosphate [1] is < 1e-05 s⁻¹. Moreover, in the data set with glucosamine-6-phosphate [4], the “self-cleavage kobs at 2500 uM GlcN6P” value is < 1e-05 s⁻¹.

G7A U56G: the “self-cleavage kobs at 40 uM GlcN6P” value with glucosamine-6-phosphate [1] was < 1e-05 s⁻¹. The “self-cleavage kobs at 640 uM GlcN6P” value in the data set with glucosamine-6-phosphate [3] is < 1e-05 s⁻¹.

For C8U A36C G41C, the “self-cleavage kobs at 40 uM GlcN6P” value with glucosamine-6-phosphate [1] is < 1e-05 s⁻¹.

Regarding A6U C11A A53U, the “self-cleavage kobs at 40 uM GlcN6P” value with glucosamine-6-phosphate [1] is < 1e-05 s⁻¹. In the data set with glucosamine-6-phosphate [3], the “self-cleavage kobs at 640 uM GlcN6P” value is < 1e-05 s⁻¹. In addition, in the data set with glucosamine-6-phosphate [5], the “self-cleavage kobs at 10000 uM GlcN6P” value was < 1e-05 s⁻¹.

For C11U A12U U65C C68G, the “self-cleavage kobs at 40 uM GlcN6P” value with glucosamine-6-phosphate [1] is < 1e-05 s⁻¹. Further, the “self-cleavage kobs at 10000 uM GlcN6P” value with glucosamine-6-phosphate [5] was < 1e-05 s⁻¹.

Turning to A52U U55A U57C C67A, in the data set with glucosamine-6-phosphate [1], the “self-cleavage kobs at 40 uM GlcN6P” value was < 1e-05 s⁻¹. Besides, the “self-cleavage kobs at 10000 uM GlcN6P” value in the data set with glucosamine-6-phosphate [5] is < 1e-05 s⁻¹.

Consider G37C C50G C58G C67G, for which the “self-cleavage kobs at 40 uM GlcN6P” value with glucosamine-6-phosphate [1] came to 0.00014 ± 3.9e-05 s⁻¹. Moreover, the “self-cleavage kobs at 160 uM GlcN6P” value with glucosamine-6-phosphate [2] came out at 0.00039 ± 0.00012 s⁻¹. In addition, in the data set with glucosamine-6-phosphate [3], the “self-cleavage kobs at 640 uM GlcN6P” value was determined as 0.000349 ± 8.1e-05 s⁻¹. Moreover, the “self-cleavage kobs at 2500 uM GlcN6P” value in the data set with glucosamine-6-phosphate [4] is 6.52e-05 ± 2.2e-05 s⁻¹. Moreover, the “self-cleavage kobs at 10000 uM GlcN6P” value with glucosamine-6-phosphate [5] stood at 0.000593 ± 0.00017 s⁻¹.

Take G35A A48U: the “self-cleavage kobs at 40 uM GlcN6P” value with glucosamine-6-phosphate [1] was < 1e-05 s⁻¹. Moreover, in the data set with glucosamine-6-phosphate [2], the “self-cleavage kobs at 160 uM GlcN6P” value was < 1e-05 s⁻¹. In the data set with glucosamine-6-phosphate [3], the “self-cleavage kobs at 640 uM GlcN6P” value was < 1e-05 s⁻¹. Further, in the data set with glucosamine-6-phosphate [4], the “self-cleavage kobs at 2500 uM GlcN6P” value was < 1e-05 s⁻¹. The “self-cleavage kobs at 10000 uM GlcN6P” value in the data set with glucosamine-6-phosphate [5] is < 1e-05 s⁻¹.

As to C10U G29C C61A, the “self-cleavage kobs at 40 uM GlcN6P” value with glucosamine-6-phosphate [1] was < 1e-05 s⁻¹.

Regarding G43A C58G, the “self-cleavage kobs at 40 uM GlcN6P” value with glucosamine-6-phosphate [1] was < 1e-05 s⁻¹. In the data set with glucosamine-6-phosphate [2], the “self-cleavage kobs at 160 uM GlcN6P” value was < 1e-05 s⁻¹. Moreover, in the data set with glucosamine-6-phosphate [3], the “self-cleavage kobs at 640 uM GlcN6P” value is < 1e-05 s⁻¹. Further, in the data set with glucosamine-6-phosphate [4], the “self-cleavage kobs at 2500 uM GlcN6P” value was < 1e-05 s⁻¹. In addition, the “self-cleavage kobs at 10000 uM GlcN6P” value with glucosamine-6-phosphate [5] is < 1e-05 s⁻¹.
